Laboratory results as given in paper PMC12255069 (Journal of Biological Engineering, 2025).
Residue numbers refer to the chain shown, from its start.

T1: ICOS-L Y8 (Q51P, N57H)-His (UniProt O75144 19-256, Q51P | N57H)
T1 construct: plasmid pMAZ-ICOS-L-Y8(Q51P, N57H)-His; also called Y8 variant; source: Expi293F, transient transfection, purified (Ni-NTA agarose, SEC)
T1 sequence (looked up): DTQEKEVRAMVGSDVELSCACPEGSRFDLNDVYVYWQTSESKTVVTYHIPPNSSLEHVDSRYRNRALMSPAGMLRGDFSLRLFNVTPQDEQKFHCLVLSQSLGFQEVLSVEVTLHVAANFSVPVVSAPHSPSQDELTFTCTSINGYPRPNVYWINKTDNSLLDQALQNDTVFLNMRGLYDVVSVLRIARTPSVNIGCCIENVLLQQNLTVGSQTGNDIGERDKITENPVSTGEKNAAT

T2: ICOS-L wild-type-His (UniProt O75144 19-256)
T2 construct: ICOS ligand (ICOS-L, B7-H2, CD275), ectodomain D1-T238; plasmid pMAZ-ICOS-L-wild-type-His; also called wild-type ICOS-L; B7-H2; source: Expi293F, transient transfection, purified (Ni-NTA agarose, SEC)
T2 sequence (looked up): T1 sequence (looked up) with P51Q, H57N

T3: ICOS-L-H (N57H)-His (UniProt O75144 19-256, N57H)
T3 construct: plasmid pMAZ-ICOS-L-H(N57H)-His; source: Expi293F, transient transfection, purified (Ni-NTA agarose, SEC)
T3 sequence (looked up): T1 sequence (looked up) with P51Q

T4: ICOS-L-P (Q51P)-His (UniProt O75144 19-256, Q51P)
T4 construct: plasmid pMAZ-ICOS-L-P (Q51P)-His; source: Expi293F, transient transfection, purified (Ni-NTA agarose, SEC)
T4 sequence (looked up): T1 sequence (looked up) with H57N

B1: hICOS-Fc (Fc fusion, human, UniProt Q9Y6W8 21-140, looked up)
chain: EINGSANYEMFIFHNGGVQILCKYPDIVQQFKMQLLKGGQILCDLTKTKGSGNTVSIKSLKFCHSQLSNNSVSFFLYNLDHSHANYYFCNLSIFDPPPFKVTLTGGYLHIYESQLCCQLK
notes: human Inducible T-cell Co-Stimulator (ICOS), extracellular domain E21-K140; plasmid pMAZ-hICOS-Fc; also called hICOS-hFc; human ICOS ectodomain fused to human Fc; source: Expi293F, transient transfection, purified (Protein A resin)
B2: mouse ICOS (E21-K141)-hFc (Fc fusion, UniProt Q9WVS0 21-141, looked up)
chain: EINGSADHRMFSFHNGGVQISCKYPETVQQLKMRLFREREVLCELTKTKGSGNAVSIKNPMLCLYHLSNNSVSFFLNNPDSSQGSYYFCSLSIFDPPPFQERNLSGGYLHIYESQLCCQLK
notes: mouse ICOS, E21-K141; Plasmid pMAZ-mICOS-Fc; also called mICOS-Fc; source: Expi293F, transient transfection, purified (Protein A resin)

Assays:
Settings in all cases: both partners purified
[1] = molecular target: T1, ICOS-L Y8 (Q51P, N57H)-His; experiment: BLI; Octet R8; hICOS-Fc (5 µg/mL) immobilised on a Protein A biosensor; serial dilutions of ICOS-L variants, 10 min association, 10 min dissociation, 1× PBS pH 7.4
ICOS-L wild-type-His = molecular target: T2, ICOS-L wild-type-His; experiment: as above
ICOS-L-H (N57H)-His = molecular target: T3, ICOS-L-H (N57H)-His; experiment: as above
ICOS-L-P (Q51P)-His = molecular target: T4, ICOS-L-P (Q51P)-His; experiment: as above
[2] = molecular target: T1, ICOS-L Y8 (Q51P, N57H)-His; experiment: ELISA; ICOS-Fc (hICOS-Fc or mICOS-Fc) coated at 4 µg/mL in 0.05 M Na2CO3 pH 9.6; serially diluted His-tagged ICOS-L variants, detected with mouse anti-His-HRP

Row | Binder | Kd [1] [nM] | koff [1] [s⁻¹] | kon [1] [M⁻¹ s⁻¹] | Kd (ICOS-L wild-type-His) [nM] | koff (ICOS-L wild-type-His) [s⁻¹] | kon (ICOS-L wild-type-His) [M⁻¹ s⁻¹] | Kd (ICOS-L-H (N57H)-His) [nM] | koff (ICOS-L-H (N57H)-His) [s⁻¹] | kon (ICOS-L-H (N57H)-His) [M⁻¹ s⁻¹] | Kd (ICOS-L-P (Q51P)-His) [nM] | koff (ICOS-L-P (Q51P)-His) [s⁻¹] | kon (ICOS-L-P (Q51P)-His) [M⁻¹ s⁻¹] | binding result [2]
1 | B1 | 1.19 | 0.000179 | 150000 | 113 | 0.0337 | 298000 | 23.3 | 0.00567 | 244000 | 4.75 | 0.000961 | 202000 | 
2 | B2 |  |  |  |  |  |  |  |  |  |  |  |  | binds
